Experimental data: article PMC8184817, “Transmission of light signals from the light-oxygen-voltage core via the hydrophobic region of the β-sheet surface in aureochrome-1” (Scientific Reports, 2021)
Changes are numbered by the printed parent chain.

Columns and labels:
Details in all cases: protein: recombinant; chain copies: 2; label: Alexa Fluor647 (EMSA); biotin (QCM); blunt; self-complementary palindrome, 2 copies
PZ N218A = biological target: T1, PZ N218A (Vaucheria frigida? (VfAUREO1), UniProt A8QW55 113-348, C162S;C182S;N218A); test: EMSA; QCM; dark state; EC50 similar to wtPZ; EMSA: 5% polyacrylamide gel, 25 C, dark or blue light 5 W/m2; QCM: 27 MHz, QCM buffer, 25 C; buffer, salt and pH not given (earlier papers cited); EC50 values (nM, per monomer) only in figures
T1 sequence: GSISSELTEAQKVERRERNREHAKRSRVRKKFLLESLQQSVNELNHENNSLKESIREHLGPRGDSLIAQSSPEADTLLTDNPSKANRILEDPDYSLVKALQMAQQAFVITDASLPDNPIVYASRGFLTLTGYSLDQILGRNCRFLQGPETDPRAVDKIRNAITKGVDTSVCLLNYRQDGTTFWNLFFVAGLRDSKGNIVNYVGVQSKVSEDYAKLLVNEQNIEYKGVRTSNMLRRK

PZ Q217A = biological target: T2, PZ Q217A (Vaucheria frigida? (VfAUREO1), UniProt A8QW55 113-348, C162S;C182S;Q217A); test: as above
T2 sequence: T1 sequence with Q105A, A106N

PZ V314A = biological target: T3, PZ V314A (Vaucheria frigida? (VfAUREO1), UniProt A8QW55 113-348, C162S;C182S;V314A); test: EMSA; QCM; dark state; altered EC50; EMSA: 5% polyacrylamide gel, 25 C, dark or blue light 5 W/m2; QCM: 27 MHz, QCM buffer, 25 C; buffer, salt and pH not given (earlier papers cited); EC50 values (nM, per monomer) only in figures
T3 sequence: T1 sequence with A106N, V202A

PZ V316A = biological target: T4, PZ V316A (Vaucheria frigida? (VfAUREO1), UniProt A8QW55 113-348, C162S;C182S;V316A); test: as above
T4 sequence: T1 sequence with A106N, V204A

Measured: binding result

B1: dsApo (dsDNA)
DNA 1: GCTGTCTGACGTCAGACAGC
DNA 2: GCTGTCTGACGTCAGACAGC
binds: PZ N218A | PZ Q217A | PZ V314A | PZ V316A
